B1: Nanos homolog 2, residues 63 to 115; numbered along this chain, P60321 (parent)
chain: CNFCKHNGESRHVYSSHQLKTPDGVVVCPILRHYVCPVCGATGDQAHTLKYCP

Variants of: B1
Test: abundance fitness (aPCA) (normalised: wild type 0, dead -1); higher = more abundant; growth selection in yeast, the domain comes from the species named
Settings: Homo sapiens

Abundance fitness, by site and new letter:
S15: Y 0.068, W -0.333, C -0.158, V -0.157, H -0.095, T -0.595, G 0.051, F -0.135, P -0.326, Q 0.034, L -0.002, K -0.099, I -0.258, N -0.034
V25: I 0.03, D -0.148, K 0.085, M -0.051, L 0.074, Q -0.05, S -0.046, N 0.08, R 0.019, E 0.015, F 0.166, H -0.489, Y -0.092, C -0.001, T 0.004, W -0.459
G24: D -0.108, W -1.12, M -0.461, R -0.413, Q -0.152, K -0.353, H -0.381, L -0.527, P -0.478, C -0.496, E -0.115, S -0.311, Y -0.895, T -0.563, F -1.02, I -0.983, N 0.113, V -0.882
T21: G -0.004
V26: M -0.292, C -0.032, E -0.574, Y -0.427, R -0.523, T -0.111, W -0.46, K -0.031, P -0.359, I 0.033, A -0.369, L -0.036, S -0.322, G -0.441, N -0.456, Q -0.305, F -0.284, D -0.509
V27: Y -0.128, W -0.144, E -0.148, D -0.09, K -0.132, T 0.02, H 0.096, Q -0.349, F -0.049, R 0.037, L -0.075, I 0.053, P -0.434, C -0.014, M -0.069, A -0.074, G -0.085
L19: C -0.093, T -0.041, D -0.172, P -0.508, Q -0.329, W -0.089, N -0.277, R -0.372, S -0.186, G -0.292, I -0.149, M -0.051, V -0.113, E -0.013
H17: G -0.618, S -0.674, K -0.6, C -0.737, E -0.512, A -0.626, F -0.86, V -0.769, R -0.644, N -0.711, P -0.828, Q -0.452, L -0.756, W -1.14, I -0.719, T -0.442
D23: H -0.307, P -0.378, T -0.211, W -0.306, N -0.044, C -0.189, G -0.132, Y -0.119, V -0.22, Q -0.061, R -0.128, I -0.418, E 0.076, M -0.234, L -0.252, F -0.371, S -0.141
V13: C 0, T 0.157, W -0.04, G -0.007, M 0.056, Y -0.125, L -0.05, I -0.195, P -0.477, N 0.064, Q -0.068, A -0.084, R -0.06, H -0.087, E -0.058, K 0.113, D -0.013, S -0.008
R32: L -0.427, I -0.434, F -0.514, M -0.18, W -0.419, G -0.352, Q -0.446, P -0.715, A -0.241, D -0.376, V -0.473, C -0.662, K -0.204, S -0.225, N -0.522, E -0.49, T -0.204, H -0.368
L31: P -0.444, H -0.271, Y -0.66, A -0.117, K -0.271, R -0.415, E -0.339, M -0.153, V -0.284, T -0.207, W -0.566, G -0.443, C -0.416, S -0.433, I -0.16, D -0.622, N -0.547, Q -0.349
K20: Y -0.455, H -0.101, Q -0.47, F -0.336, C -0.071, D -0.118, A -0.111, N -0.388, M -0.368, S -0.168, P -0.561, T -0.118, E -0.47, L -0.289, V -0.204, G -0.523, W -0.569
Q18: V 0.065, N 0.097, D 0.101, A 0.056, R -0.114, I -0.259, L -0.033, G -0.089, F -0.079, H 0.081, Y -0.149, K 0.133, P -0.183, M 0.091, S -0.104, T -0.145
P22: M -0.129, L -0.067, H -0.107, V -0.053, F -0.383, C 0.002, I -0.158, Y -0.121, E -0.184, D -0.112, K 0.306, T -0.084, A -0.048, S 0.037, N -0.12, R -0.079, W -0.321, G -0.041
I30: G -0.081, S 0.082, H 0.041, E -0.108, K 0.127, W -0.346, N 0.039, T 0.111, L -0.033, D -0.345, Q -0.05, P -0.249, A 0.084, M 0.015, F -0.524, C -0.304
Y14: T 0.011, L -0.125, H -0.226, D -0.213, V -0.011, G -0.109, W 0.208, K -0.133, E -0.089, M -0.274, A -0.165, I -0.18, C 0.036, Q 0.002, R -0.153
P29: M -1.05, W -1.07, E -0.195, L -0.978, D -0.543, A -0.786, K -0.364, Y -0.721, S -0.65, R -0.503, N -0.779, Q -0.38, C -1.07, G -0.588
S16: M -0.047, R -0.135, Y -0.489, H -0.287, N 0.023, C 0.077, L -0.456, K -0.262, E -0.163, V -0.562, Q -0.042, D -0.08, G -0.035, W -0.557, A -0.117, T -0.335, F -0.594, P -0.459, I -0.406
C28: Y -0.815, W -1.03, Q -0.428, D -0.643, T -0.586, R -0.752, V -0.852, P -0.664, F -0.91, M -0.524, A -0.714, L -0.962, E -0.733, G -0.535, S -0.501
H12: R -0.049, P -0.069, T 0.035, S 0.126, Y -0.101, W -0.148, V -0.091, Q -0.013
H33: M -0.028, R 0.036, P -0.319, E -0.082, I -0.435, A 0.046, N 0.218, C -0.013, F -0.534, D 0.127, K -0.013
